Data as given in the supplement of paper PMC12042874.
± gives the uncertainty stated by the source.

Experiment: amyloid nucleation score (Sup35N fusion, yeast selection) (log enrichment); library NNK3; higher = more nucleation; inactive = no reads after selection
How it was run: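 On medium lacking adenine and uracil, psi-negative yeast expressing peptides of 20 random codons fused to Sup35N were grown 7 days at 30°C after a 24-hour induction with 100 μM copper sulfate. Illumina sequencing of input and output plasmid inserts gave the reads, and sequences under 100 input reads were excluded. The nucleation score is the DiMSum log enrichment of output over input reads, centred on the mode score of non-aggregating sequences.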

Substance	amyloid nucleation score
TMNLCS	inactive
TMSGFYYNSFIRYNLAL	inactive
TMVTTNEIT	0.092 ± 0.29
TMYIAHGELGFIRNHLDISR	1.04 ± 0.11
TNLVAIKYLFT	-0.022 ± 0.48
TNMHYMSHYLETTPFTTGMV	inactive
TNPLYYRS	inactive
TNSGGFRMVIYFFR	inactive
TNTSFTIVSYTSYR	0.696 ± 0.27
TNYYFALLGYYHLFSSTGHR	2.66 ± 0.064
TNYYFQNV	inactive
TPCYRFNSRYRMTFM	inactive
TPMGQCAYHEPVNMVKKALR	inactive
TPRQFSDGCISFNKVTINPQ	0.704 ± 0.34
TPYILLG	inactive
TQFISLSGGRTHLSGFLVFG	0.957 ± 0.14
TQGYVFKELAGVSRYTEA	inactive
TQPDLV	inactive
TRCGFS	inactive
TRCTGSYNNYG	inactive
TRGLWYQHVDHSTFRLKEST	inactive
TRIFVCVFVCTTPTMHAPIW	0.921 ± 0.23
TRISMSENKVVKREVVATRR	inactive
TRKDDFDLSGCSR	inactive

Substance	amyloid nucleation score
TRLTL	inactive
TRMDIESGYVLESYSRPSPM	inactive
TRNCGRSGYRL	1.13 ± 0.089
TRNYFNPVSRRGVTVSRGLY	inactive
TRRATGYFHFS	inactive
TRSWCGDMYSHC	inactive
TRTMAVDTVGCSENRDAAGD	inactive
TRVTS	inactive
TRYKELSFNTVSLVRYCAGG	inactive
TSDIAPFRDLLIASA	inactive
TSFWGGALEDSATITLECWF	-0.24 ± 1.3
TSGAANHYLYSSVSWTFFLL	0.764 ± 0.19
TSGDMRAVYGLYREIRLVNT	inactive
TSGSEDLLYGRDVVVYRSGC	inactive
TSPGFYGWMSNSTSSNDIVA	inactive
TSPNYTGPMNSCLRAWLWDR	inactive
TSRRVCLQ	inactive
TSRYIGL	inactive
TSSQKDIWQDVYGLLFWAQS	inactive
TSTFARDKVDFAVLSLF	inactive
TSTNNSRKYSSQRRWMHPLG	inactive
TSTRHDGGFMVMWYLLGLTR	inactive
TSTYANKALTVLE	inactive
TSVGYNRIMFQERNIHPELN	inactive

Substance	amyloid nucleation score
TTRLNFENVNVTLLNYKSMG	1.19 ± 0.069
TTRRVGCLMGFLVDFRIKSC	inactive
TTSVIAGLW	inactive
TVEVNCCYLEGNVV	1.03 ± 0.089
TVHTNLCAMLMFTGYF	inactive
TVLCFSACQENFSSSLRRLY	inactive
TVRWDVSLMFMRPMMYGEPK	-0.13 ± 1.1
TVTHALLSYKCHNG	inactive
TVTSSFATLNQVYGPHVFVN	inactive
TVVLSWPMYAECKFSCICMT	1.38 ± 0.1
TWCSIMDLLVQLRVRNLFGK	inactive
TWDMSLT	inactive
TWEVYTMCIRNGGVLGLFIF	inactive
TWFTSFYCFSNNAYLYF	1.8 ± 0.066
TWINFFGTYILWPNFNYSTR	2.66 ± 0.064
TWMKMSTEWRTLDLDCWNSS	1.34 ± 0.13
TWSGQGHR	inactive
TWSWVVAASVKLISFKL	inactive
TYCERKFTTSGTSYTSQKYF	inactive
TYFTFSREVKMMVHTNCCLL	0.594 ± 0.2
TYFVVDGYVGMFCLIGDISS	2.69 ± 0.052
TYLVMS	inactive
TYMCQVFNILDSQKYCYMRR	inactive
TYPSEVYFIMFAMFSSTCWS	inactive

Substance	amyloid nucleation score
TYPTYRVWVEEQCRLYDTNR	inactive
TYQVILSFYDLWFGRSAYCQ	inactive
TYRLAVLS	inactive
TYVIFCYTVSHDDSHRTLYN	2.19 ± 0.084
TYVRHFVIRFMREGRSLGGR	inactive
TYVVMGFRCETFRIHNGLRR	inactive
TYYNHIRLVYLIGAKRWEEL	inactive
VACRFHMCLWLGRVLDYAKN	1.1 ± 0.14
VAFDIINRQNIINEWGCWID	inactive
VAFVNKCFSD	inactive
VAKFYRQ	inactive
VAKHNAR	inactive
VAKLKRTWTVWLVIYSRKSW	inactive
VAQFDRNLKPKVNYAVNELQ	inactive
VAWAASARRHMYIPDRDSCA	inactive
VCGAVSKPLWIRCTVDPRGR	inactive
VCIPYMVVVFISSIP	1.72 ± 0.11
VCITRMQVRLPTYLRVQSKA	inactive
VCLFICLNDDFLIRRPDCLS	2.08 ± 0.051
VCRFYIGFTYWLSCC	inactive
VCWSHNPRPTDDY	inactive
VCYNLCRKIPDSLSKIPDRR	inactive
VDKLGSYPMPLVLGVVNTYQ	inactive
VDKQPDLIAHRMWTKVG	inactive

Substance	amyloid nucleation score
VDTKFSISYTGKTC	inactive
VDVSRTFALCHRDLPMMP	inactive
VDWKVAR	inactive
VDYSRALTAYVCIPANFSVP	inactive
VECNIEIHNISSFPSTEKNQ	2.41 ± 0.06
VEHHDFSRSSSAYTRVL	inactive
VELTC	inactive
VEMGDSVRSRGYSISVFLRK	inactive
VERKNVLFRYHAVGFVLGDV	inactive
VERSSLVEWSCDRVSKWYFV	0.298 ± 0.74
VEYLFVNCWSTE	inactive
VFDYADDYYTVNGTVLSPAE	-0.283 ± 0.32
VFEAAALVCNCGTWDRGLND	1.79 ± 0.1
VFISRKCWRNHNF	inactive
VFKWWM	1.2 ± 0.16
VFLSSELSTLLVVYRLLGSG	inactive
VFLVQFFFINFLGNSN	2.45 ± 0.067
VFLYTNKYRYGCCGFAFTPF	inactive
VFNLLYVGFHVDSIGVGCVI	1.97 ± 0.096
VFNRSSAT	inactive
VFPFIRNKV	inactive
VFPFSSFFKFLQRSWCGRDE	1.22 ± 0.12
VFRLKSVLSGLLQAHRLAGI	inactive
VFTSGLCEKS	0.195 ± 0.72
